To fix the notation:
B1: Protein kinase C and casein kinase substrate in neurons protein 1 (Mus musculus), Q61644 (parent)
chain: MSGSYDEASEEITDSFWEVGNYKRTVKRIDDGHRLCNDLMSCVQERAKIEKAYAQQLTDWAKRWRQLIEKGPQYGSLERAWGAMMTEADKVSELHQEVKNSLLNEDLEKVKNWQKDAYHKQIMGGFKETKEAEDGFRKAQKPWAKKMKELEAAKKAYHLACKEERLAMTREMNSKTEQSVTPEQQKKLVDKVDKCRQDVQKTQEKYEKVLEDVGKTTPQYMEGMEQVFEQCQQFEEKRLVFLKEVLLDIKRHLNLAENSSYMHVYRELEQAIRGADAQEDLRWFRSTSGPGMPMNWPQFEEWNPDLPHTTAKKEKQPKKAEGATLSNATGAVESTSQAGDRGSVSSYDRGQTYATEWSDDESGNPFGGNEANGGANPFEDDAKGVRVRALYDYDGQEQDELSFKAGDELTKLGEEDEQGWCRGRLDSGQLGLYPANYVEAI

This assay covers variants of B1. Particulars: with Mapt.
On to P434L, for which the “effect of a mutation on the interaction” value was “disrupting interaction”.
